What was measured:
[1] = target: FN-9*-10 recombinant fibronectin fragment (normal form mimic) (UniProt P02751); assay: ELISA, fibronectin fragment tethered to maleimide activated plate, colorimetric detection
[2] = target: T1, FN-4G-10 recombinant fibronectin fragment (diseased form mimic) (UniProt P02751 1448-1537; P02751 1538-1631, limits assumed); assay: as above
T1 construct: domain: 9th type III repeat;domain: 10th type III repeat; also called FnIII9-4G-10; FnIII-4G-10
Excerpt: (§1) In vitro ELISA binding assays were employed to determine the efficacy of binding of H5 antibodies and derivatives thereof to the diseased form (dise) and the healthy form (norm) of fibronectin. Maleimide activated ELISA plates were used to tether the recombinant fibronectin fragments, which were named as FN-4G-10 and FN-9*-10, and they mimicked diseased and normal form of FN, respectively. Both formats of H5 were used in different molar concentrations starting with 10^-5M and ending with 10-11M. Bound antibodies were detected by colorimetric method.
(§2) The data represents the combination of two independent experiments, one comparing E. coli (eH5) versus N. benthamiana (nicoH5) produced H5-scFv and the second comparing H5-scFv (scFv) to H5-IgG1 (H5-IgG). […] Further, it discriminated the two fragments showing higher affinity for FN-4G-10 (diseased form) compared to FN-9*-10 (Healthy form).

[3] = target: FN-9*-10 recombinant fibronectin fragment (normal form mimic) (UniProt P02751); assay: ELISA, fibronectin fragment tethered on maleimide-activated plate, colorimetric detection (absorbance)
[4] = target: T1, FN-4G-10 recombinant fibronectin …; assay: as above
Excerpt: as §1, §2

[5] = target: FN-4G-10 recombinant fibronectin fragment (diseased form mimic) (UniProt P02751); assay: as above
FN-4G-10 recombinant fibronectin fragment (diseased form mimic) (UniProt P02751), sequence (P02751 other isoform, or with tags, fused parts or gaps limits assumed): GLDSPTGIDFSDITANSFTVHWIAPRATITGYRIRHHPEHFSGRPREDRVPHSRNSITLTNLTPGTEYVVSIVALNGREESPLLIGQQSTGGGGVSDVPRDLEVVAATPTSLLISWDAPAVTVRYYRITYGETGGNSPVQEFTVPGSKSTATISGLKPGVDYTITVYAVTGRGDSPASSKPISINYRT

FN-9*-10 recombinant fibronectin fragment (normal form mimic), sequence (P02751 1448-1631): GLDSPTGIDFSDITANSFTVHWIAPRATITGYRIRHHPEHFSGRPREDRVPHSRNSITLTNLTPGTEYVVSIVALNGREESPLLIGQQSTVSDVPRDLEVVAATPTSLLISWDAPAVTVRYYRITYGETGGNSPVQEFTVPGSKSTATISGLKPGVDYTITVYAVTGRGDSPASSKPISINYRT
T1 sequence (P02751 other isoform, or with tags, fused parts or gaps limits assumed): as the sequence (P02751 other isoform, or with tags, fused parts or gaps limits assumed) above

Row | Binder | fold higher binding than the H5-scFv format at equimolar concentration [1] [fold] | fold higher binding than the H5-scFv format at equimolar concentration [2] [fold] | EC50 (read off the curve) [3] [nM] | EC50 (read off the curve) [4] [nM] | EC50 (read off the curve) [5] [nM]
1 | modified H5-IgG1 antibody (antibody, V domains shown, Full length IgG1 format; Made in a plug-and-(dis)play (PnP) hybridoma cell line; also called modified IgG1 format of H5) VH: EVQLLESGGGLVQPGGSLRLSCAASGFTFSSYAMSWVRQAPGKGLEWVSDIYDGGGTNYADSVKGRFTTSRDNSKNTLYLQMNSLRAEDTAVYYCAKTADNFDYWGQGTLVTVSS VL: DIQMTQSPSSLSASVGDRVTITCRASQSISSYLNWYQQKPGKAPKLLIYAASTLQSGVPSRFSGSGSGTDFTLTISSLQPEDFATYYCQQANSAPTTFGQGTKVEIKR | > 50 | ≥ 50 | 10 | ~4 | –
2 | unmodified H5 antibody (H5-scFv) produced in E. coli (scFv, part only; not given: scFv linker, domain order, tags, V domains shown, not shown: another chain or arm of the molecule; small tags and cut ends) VH: EVQLLESGGGLVQPGGSLRLSCAASGFTFSSYAMSWVRQAPGKGLEWVSDIYDGGGTNYADSVKGRFTTSRDNSKNTLYLQMNSLRAEDTAVYYCAKTADNFDYWGQGTLVTVSS VL: DIQMTQSPSSLSASVGDRVTITCRASQSISSYLNWYQQKPGKAPKLLIYAASTLQSGVPSRFSGSGSGTDFTLTISSLQPEDFATYYCQQANSAPTTFGQGTKVEIK | – | – | 100 | – | 100

Reference: patent publication US20240210419A1 (UNIVERSITY OF VIRGINIA PATENT FOUNDATION, published 2024)
